# Assay results: the Immune Epitope Database (IEDB)
# Molecular target: HLA-A*02:01
# Assay: IEDB peptide-MHC binding, purified MHC/competitive/radioactivity; ≥ and ≤ were set here for values at or beyond the usual limits of such assays
# Details: source organism: Mycobacterium tuberculosis H37Rv
row,Sequence,IC50
1,ALLALTRAI,0.42 µM
2,AYGSFVRTV,13 µM
3,ELAAEPTEV,1.8 µM
4,GLWLSVAAV,0.11 µM
5,GSFVRTVSL,59 µM
6,HVYAHQAQT,5.5 µM
7,LTRAILIRV,53 µM
8,QAQTRHPAT,≥ 250 µM
9,RTVSLPVGA,2.5 µM
10,TEVGQDQYV,≥ 250 µM
